In patent US20150190466:

Target: T1, N-terminus tagged ILDR2
T1 sequence (Q71H61 whole entry, species assumed, looked up): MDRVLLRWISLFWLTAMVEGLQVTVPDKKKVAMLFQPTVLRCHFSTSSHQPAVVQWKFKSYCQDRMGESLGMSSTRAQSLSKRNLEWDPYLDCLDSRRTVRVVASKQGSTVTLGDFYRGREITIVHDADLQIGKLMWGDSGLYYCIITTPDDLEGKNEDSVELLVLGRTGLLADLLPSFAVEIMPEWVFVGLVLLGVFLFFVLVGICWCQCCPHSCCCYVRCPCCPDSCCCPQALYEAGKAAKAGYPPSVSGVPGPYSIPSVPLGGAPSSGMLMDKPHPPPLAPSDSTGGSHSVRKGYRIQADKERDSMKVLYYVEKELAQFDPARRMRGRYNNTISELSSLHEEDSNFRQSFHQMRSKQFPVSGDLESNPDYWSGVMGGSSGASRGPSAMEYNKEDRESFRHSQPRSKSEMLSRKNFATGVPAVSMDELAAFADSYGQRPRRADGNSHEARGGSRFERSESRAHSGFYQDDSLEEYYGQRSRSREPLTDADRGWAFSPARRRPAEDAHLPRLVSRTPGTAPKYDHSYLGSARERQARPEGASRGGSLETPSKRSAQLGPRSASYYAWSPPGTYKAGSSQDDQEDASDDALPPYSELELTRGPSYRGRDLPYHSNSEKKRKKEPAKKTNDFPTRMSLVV

B1: V5-tagged PERK (protein)
chain: VAPARSLLAPASETVFGLGAAAAPTSAARVPAVATAEVTVEDAEALPAAAGEPESRATEPDDDVELRPRGRSLVIISTLDGRIAALDAENDGKKQWDLDVGSGSLVSSSLSKPEVFGNKMIIPSLDGDLFQWDRDRESMEAVPFTVESLLESSYKFGDDVVLVGGKSLITYGLSAYSGKLRYICSALGCRRWDSDEMEEEEDILLLQRTQKTVRAVGPRSGSEKWNFSVGHFELRYIPDMETRAGFIESTFKPGGNKEDSKIISDVEEQEATMLDTVIKVSVADWKVMAFSRKGGRLEWEYQFCTPIASAWLVRDGKVIPISLFDDTSYTASEEALGDEEDIVEAARGATENSVYLGMYRGQLYLQSSVRVSEKFPTSPKALESVNGENAIIPLPTIKWKPLIHSPSRTPVLVGSDEFDKCLSNDKYSHEEYSNGALSILQYPYDNGYYLPYYKRERNKRSTQITVRFLDSPHYSKNIRKKDPILLLHWWKEIFGTILLCIVATTFIVRRLFHPQPHRQRKESETQCQTESKYDSVSADVSDNSWNDMKYSGYVSRYLTDFEPIQCMGRGGFGVVFEAKNKVDDCNYAIKRIRLPNRELAREKVMREVKALAKLEHPGIVRYFNAWLETPPEKWQEEMDEIWLKDESTDWPLSSPSPMDAPSVKIRRMDPFSTKEQIEVIAPSPERSRSFSVGISCGQTSSSESQFSPLEFSGTDCGDNSDSADAAYNLQDSCLTDCEDVEDGTVDGNDEGHSFELCPSEASPYTRSREGTSSSIVFEDSGCGNASSKEEPRGNRLHDGNHYVNKLTDLKCSSSRSSSEATTLSTSPTRPTTLSLDFTKNTVGQLQPSSPKVYLYIQMQLCRKENLKDWMNRRCSLEDREHGVCLHIFLQIAEAVEFLHSKGLMHRDLKPSNIFFTMDDVVKVGDFGLVTAMDQDEEEQTVLTPMPAYATHTGQVGTKLYMSPEQIHGNNYSHKVDIFSLGLILFELLYPFSTQMERVRILTDVRNLKFPLLFTQKYPQEHMMVQDMLSPSPTERPEATDIIENAIFENLEFPGKTVLRQRSRSMSSSGTKHSRQPSCSYSPLPGN
  cleavage of ILDR2 (western blot of ILDR2 fragments after co-transfection): N-terminus-tagged ILDR2 was also decreased by PERK, but cleaved ILDR2 was not detected
